The chains are these.
B1: 51 kDa seed maturation protein precursor (protein)
chain: MASKVVSVLVIAMMLFAMNCNCTSVGHMPSTKEEGHDFQESKAKTTQTANKAMETGKEGQEAAESWTEWAKEKLSEGLGFKHDQESKESTTNKVSDYATDTAQKSKDYATDTAQKSKDYAGDAAQKSKDYAGDAAQKTKDYASDTAQTSKDYAGDAAQKSKGYVGDAAQKTKEYVGDAAQKTKDYATDAAQKTKDYATQKTKDYASDATDAAKKTKDYAAQKTKDYASEASDVAQNTKDYAAQKTKDYASGGAQKTKDYASGGAQKTKDYASDAAQKTKDYASDGAQKSKEYAGDVALNAKDYAQKSKDYAGDAAQNVKDYASDAVQKRKEYSGDASHKSKEASDYASETAKKTKDYVGDAAQRSKGAAEYASDAAQRTKEYAGDATKRSKEASNDHANDMAQKTKDYASDTAQRTKEKLQDIASEAGQYSAEKAREMKDAAAEKASDIAKAAKQKSQEVKEKLGGQHRDAEL
modifications: Glycine max
notes: spot also identified as Lea protein precursor
B2: triosephosphate isomerase isoform X1 (protein)
chain: MGRKFFVGGNWKCNGTTEEVKKIVTTLNEAKVPGEDVVEVVVSPPFVFLPFVKSLLRPDFHVSAQNCWVRKGGAYTGEVSAEMLVNLGIPWVIIGHSERRQLLNESNEFVGDKVAYALQQGLKVIACIGETLEQREAGTTTAVVAEQTKAIAAKISNWDNVVLAYEPVWAIGTGKVATPAQAQEVHADLRKWVHDNVSAEVAASVRIIYGGSVNGGNCKELAAQPDVDGFLVGGASLKAEFVDIINAATVKKN
modifications: Glycine max
notes: spot also identified as triosephosphate isomerase, cytosolic
B3: superoxide dismutase [Fe], chloroplastic isoform X1 (protein)
chain: MASLGGLQNVSGINFLIKEKGCCMLQGPKVNAKFELKPPPYPLNGLEPVMSQQTLEFHWGKHHKTYVENLKKQVVGTELDGKSLEEIIVTSYNKGDILPAFNNAAQVWNHDFFWECMKPGGGGKPSGELLELIERDFGSFVKFLDEFKAAAATQFGSGWAWLAYRARKFDGENVANPPSPDEDNKLVVLKSPNAVNPLVWGGYYPLLTIDVWEHAYYLDFQNRRPDYISVFMDKLVSWDAVSSRLEQAKALITSA
modifications: Glycine max
notes: spot also identified as iron-superoxide dismutase
B4: alpha-1,4 glucan phosphorylase L isozyme, chloroplastic/amyloplastic (protein)
chain: MASSSTTMRFSAASTGAAAALPRRSSVAGFIGVAARSSAKSRLRFIGRNANLSLRMRRMSSFSVVKCVSGSEAKVQDTVAKQQEATTSLSSFTPDASSIASSIKYHAEFTPLFSPENFDLPQAFLATAQSVRDSLIINWNATYDYYEKLNVKQAYYLSMEFLQGRALLNAIGNLELTGPYAEALSKLGHKLENVAYQEPDAALGNGGLGRLASCFLDSLATLNYPAWGYGLRYKYGLFKQRITKDGQEEVAEDWLEMGNPWEIIRNDVSYPVKFYGKVVSGSDGKKHWIGGEDIKAVAHDVPIPGYKTKTTINLRLWSTKAASEEFDLSAFNAGRHTEASEALANAEKICYILYPGDEPIEGKILRLKQQYTLCSASLQDIIARFERRSGANVNWEEFPEKVAVQMNDTHPTLCIPELMRILIDVKGLNWKDAWNITQRTVAYTNHTVLPEALEKWSLDLMQKLLPRHIEIIEMIDEELVRTIIAEYGTENSDLLEKKLKEMRILENVELTAEFADILVKSKEAIDIPSEELQSSEQAEAEDEKDDDEVEAVAKKNGTDESSIEDEKEELPEPVPEPPKLVRMANLCVVGGHAVNGVAEIHSEIVKDDVFNAFYKLWPEKFQNKTNGVTPRRWIRFCNPDLSKIITEWIGTEDWVLNTGKLAELRKFVDNEDLQVQWREAKRSNKVKVAAFIREKTGYSVSPDAMFDIQVKRIHEYKRQLMNIFGIVYRYKKMKEMSAAEREANFVPRVCIFGGKAFATYVQAKRIVKFITDVGATVNHDPEIGDLLKVVFVPDYNVSVAEMLIPASELSQHISTAGMEASGTSNMKFAMNGCILIGTLDGANVEIREEVGADNFFLFGAKAHEIAGLRKERAEGKFVPDPRFEEVKEFVRSGIFGSYNYDELMGSLEGNEGFGRADYFLVGKDFPSYIECQEKVDEAYRDQTKWTRMSILNTAGSYKFSSDRTIHEYAREIWNIEPVQLP

For this assay, the system named is IgE antibodies from soybean-allergic patients. The experiment in a line: Immunoblotting of two-dimensional electrophoresis pattern of soybean proteins with patient serum. It counts as binding, human. Particulars: spot in 2D electrophoresis gel of soybean proteins; patient serum compared with healthy subject serum. The text has this:
Transfer to membrane was done using the following transfer system and transfer buffer. • Transfer system: XCell SureLock Mini-Cell and XCell II Blot Module (produced by Life Technologies) • Transfer buffer: NuPAGE Transfer Buffer (X20) (produced by Life Technologies), used in a form diluted 20-fold with milliQ water.
To be specific, proteins in the two-dimensional electrophoresis gels were transferred to a membrane (PVDF membrane) according to the following procedure. • (1) The PVDF membrane was immersed in 100% methanol followed by milliQ water, and then moved into the transfer buffer to hydrophilize the PVDF membrane. • (2) After sponge, filter paper, the gels treated by second-dimensional SDS-PAGE, the hydrophilized PVDF membrane, filter paper, and sponge were put in place in this order, the transfer system was energized at a constant voltage of 30 V for one hour.
Immunoblotting of the membrane was carried out using, as a primary antibody, a serum sample from a patient with a soybean allergy or a serum sample from a healthy subject.
Immunoblotting of the membrane was carried out according to the following procedure. • (1) The transferred membrane was shaken in a 5% skim milk/PBST solution (a PBS buffer containing 0.3% Tween 20 nonionic surfactant) at room temperature for one hour. • (2) The membrane was left to stand in a solution of 3% primary antibody serum in 5% skim milk/PBST at room temperature for one hour. • (3) The membrane was washed with a PBST solution (5 min.×3 times). • (4) The membrane was left to stand in a 1:2500 dilution of the secondary antibody, anti-human IgE-HRP (horseradish peroxidase), with a 3% skim milk/PBST solution at room temperature for one hour. • (5) The membrane was washed with a PBST solution (5 min.×3 times). • (6) The membrane was left to stand in Pierce Western Blotting Substrate Plus (produced by Thermo Fisher Scientific) for 5 minutes.
The membrane obtained through the foregoing series of treatments was subjected to fluorescent image scanning on Typhoon 9400 (produced by GE).
The immunoblots obtained with the serum from the soybean-allergic patient were compared with those obtained with the control serum from the healthy subject.
For orientation: In western blotting, separated proteins are transferred to a membrane and probed.
Take B1: the “specific binding to IgE antibodies from soybean-allergic patients” value (from here on “specific binding to IgE antibodies”) is “specific binding”. The entry for B2 is “specific binding”.

Regarding B3, the “specific binding to IgE antibodies” value is “specific binding”. On to B4, for which the “specific binding to IgE antibodies” value is given as “specific binding”.

Values taken from US20250262297A1, “ALLERGY ANTIGEN AND EPITOPE THEREOF” (HOYU CO., LTD., priority 2017, published 2025).
